In patent publication US20030170785A1:

Target: CaV1.2 (α1C) L-type calcium channel subunit
Assay: cell-based or functional assay

Substance: calcium channel β3 subunit
- Ca^2+ influx (fluorescence change after depolarization with 50 mM KCl) in transfected HEK 293 cells: 3 fold
